Experimental data as given in patent publication US20210395344A1 (TWIST BIOSCIENCE, published 2021).
Like-named read-outs stand apart in the source and are kept apart here.

B1: 1-17 (antibody, V domains shown)
VH: EVQLLESGGGLVQPGGSLRLSCAASGFTFSSYAMYWVRQAPGKGLEWVSAISGSAGSTYYADSVKGRFTISRDNSKNTLYLQMNSLRAEDTAVYYCARDTNDFWSGYSIFDPWGQGTLVTVSS
VL: QSALTQPASVSGSPGQSITISCTGTSSDIGSYNLVSWYQQHPGKAPKLMIYEGTKRPSGVSNRFSGSKSGNTASLTISGLQAEDEADYYCCSYAGSRTYVFGGGTKLTVL
notes: also called variant 1-17
B2: 1-42 (antibody, V domains shown)
VH: EVQLLESGGGLVQPGGSLRLSCAASGVTFSSYAMSWVRQAPGKGLEWVSAITGSGGSTYYADSVKGRFTISRDNSKNTLYLQMNSLRAEDTAVYYCAKHGSGTIFGVVIAKYYFDYWGQGTLVTVSS
VL: QSALTQPASVSGSPGQSITISCTGTSSDVGRYNLVSWYQQHPGKAPKLMIYEGGKRPSGVSNRFSGSKSGNTASLTISGLQAEDEADYYCCSYASSSTLVFGGGTKLTVL
notes: also called variant 1-42

How the values were obtained:
[1] = biological target: T1, Acro COVID S1 (S1N-C82E8) (SARS-CoV-2, UniProt P0DTC2 16-685); test: phage ELISA
T1 construct: domain: S1

[2] = biological target: T1, Acro COVID S1 (S1N-C82E8); test: phage ELISA; remark: listed apart in the source

| Binder | ELISA fold over background [1] [fold over background] | ELISA fold over background [2] [fold over background] |
| --- | --- | --- |
| B1 | 25.1 | 25.1 |
| B2 | 22.7 | 22.7 |
